The values below come from PMC11944484, “Metronidazole Activation by a Deeply Entangled Dimeric Malic Enzyme in Entamoeba histolytica” (Pathogens, 2025).

The target in data set [1] is T1, EhME (Entamoeba histolytica malic enzyme; rEhME) (Entamoeba histolytica, UniProt Q9NH04).
T1 construct: gene CL6EHI_044970; full-length ORF in pQE30, N-terminal His6 tag (cleavage not mentioned), expressed in E. coli M15; Ni-NTA and Superdex 200; apparent 53 kDa; entangled homodimer with composite active site
T1 sequence (Q9NH04 1-487): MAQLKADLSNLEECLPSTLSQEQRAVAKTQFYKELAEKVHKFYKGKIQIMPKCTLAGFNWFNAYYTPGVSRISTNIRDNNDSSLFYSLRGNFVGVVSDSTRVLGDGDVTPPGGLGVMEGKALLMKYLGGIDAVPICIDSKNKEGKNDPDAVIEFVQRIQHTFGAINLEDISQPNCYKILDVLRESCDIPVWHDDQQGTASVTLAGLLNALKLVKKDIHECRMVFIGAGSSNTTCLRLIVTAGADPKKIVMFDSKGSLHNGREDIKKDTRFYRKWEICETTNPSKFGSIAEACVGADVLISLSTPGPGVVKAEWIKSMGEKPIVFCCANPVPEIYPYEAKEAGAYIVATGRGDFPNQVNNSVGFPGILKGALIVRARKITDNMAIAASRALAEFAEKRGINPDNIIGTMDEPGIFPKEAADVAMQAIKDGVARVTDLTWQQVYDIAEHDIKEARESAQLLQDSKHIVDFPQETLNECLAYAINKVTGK
As to the kind of experiment: NADPH formation at […] nm, inhibition kinetics. Format: biochemical.

Substrate in data set [2]: NC(=O)c1ccc[n+]([C@@H]2O[C@H](COP(=O)(O)OP(=O)(O)OC[C@H]3O[C@@H](n4cnc5c(N)ncnc54)[C@H](OP(=O)(O)O)[C@@H]3O)[C@@H](O)[C@H]2O)c1
Nature of the data set: purified protein. The data set is classed as biochemical, Entamoeba histolytica. Conditions: L-malate at saturation, NADP+ varied 0.1-0.5 mM, 5 mM MnCl2, 50 mM Tris-Cl pH 7.4, 30 °C, apparent Km, varied: cofactor.

Substrate in data set [3]: O=C(O)C[C@H](O)C(=O)O
As to the kind of experiment: purified protein. Format: biochemical, Entamoeba histolytica. Conditions: NADP+ at saturation, L-malate varied 5-15 mM, 5 mM MnCl2, 50 mM Tris-Cl pH 7.4, 30 °C, apparent Km.

Data set [4] concerns the molecule itself. Nature of the data set: SEC; gel filtration chromatography of purified EhME; conditions of the analysis not told apart from the purification step (Superdex 200, 10 mM Tris, 150 mM NaCl, 10 mM DTT, pH 8.0).

As for `Nc1ncnc2c1ncn2[C@@H]1O[C@H](COP(=O)(O)OP(=O)(O)OP(=O)(O)O)[C@@H](O)[C@H]1O` [ATP], the Ki in data set [1] is 650 µM.

B1: Entamoeba histolytica malic enzyme (enzyme, UniProt Q9NH04 1-487, looked up)
chain: T1 sequence (Q9NH04 1-487)
notes: Entamoeba histolytica malic enzyme, gene PCR-amplified from genomic DNA with primers from the ATG start codon to the stop codon; cloned into pQE30; Homodimer with two interlocked (knotted) protomers; also called EhME; rEhME; source: E. coli M15 (pQE30), purified (Ni-NTA, Superdex 200 gel exclusion chromatography)
As to B1, in the data set “purified protein [2]”, the Km came to 46.67 ± 6.0 µM and the kcat turned out to be 14.57 s⁻¹. Further, in “purified protein [3]”, the Km was 570 ± 80 µM and the kcat was 41.7 s⁻¹. Besides, the “stoichiometry N” value in data set [4] came out at 2.

By Ki is commonly meant a measure of affinity in units of concentration, obtained from inhibition or displacement. Low readings indicate a stronger hold on the target, high ones a looser hold on the target. As usually defined, the Km is the concentration of substrate that gives half-maximal velocity. A word on the kcat: it is the number of substrate molecules converted per active site and unit of time at saturation. The term stoichiometry N denotes a count of units in the complex or per binding partner.
